Measured values published in patent US20220025003A1, “REAGENTS AND METHODS FOR CONTROLLING PROTEIN FUNCTION AND INTERACTION” (University of Washington, priority 2018, published 2022).

Legend:
NS3a/grazoprevir complex = target: T1, NS3a/grazoprevir complex (Hepatitis C virus genotype 1a, UniProt P27958, C1073S/C1078L/C1185S/I1043Q/I1044E/I1098T/L1039E/L1040E/L1047Q/L1179I/N1200S/P1112Q/Q1106K/T1100M/T1173A); test: Yeast surface display binding and titration
T1 construct: made in house; host or cells: E. coli BL21 (DE3), pDW363 with BirA
Excerpt: (§1) ; these sorts are denoted as “avid” below. […] See FIG. 30a for yeast gating strategies.
(§2) […]. Curves were fit using Graphpad Prism 5 to a one-site specific binding model with Hill coefficient.

NS3a/asunaprevir complex = target: T2, NS3a/asunaprevir complex (Hepatitis C virus genotype 1a, UniProt P27958, C1073S/C1078L/C1185S/I1043Q/I1044E/I1098T/L1039E/L1040E/L1047Q/L1179I/N1200S/P1112Q/Q1106K/T1100M/T1173A); test: Yeast surface display binding and titration
T2 construct: made in house; host or cells: E. coli BL21 (DE3), pDW363 with BirA
Excerpt: as §1, §2

NS3a/danoprevir complex = target: T3, NS3a/danoprevir complex (Hepatitis C virus genotype 1a, UniProt P27958, C1073S/C1078L/C1185S/I1043Q/I1044E/I1098T/L1039E/L1040E/L1047Q/L1179I/N1200S/P1112Q/Q1106K/T1100M/T1173A); test: Yeast surface display binding and titration
T3 construct: made in house; host or cells: E. coli BL21 (DE3), pDW363 with BirA
Excerpt: as §1, §2

NS3a in NIH3T3 cells = test: Confocal microscopy for colocalization analysis (fixed cells); format: cell-based; conditions: 10 μM drug, 1 h
Procedure: A Leica SP8× system was used for confocal microscopy. […] TagBFP emission was recorded on a PMT detector, and EGFP and mCherry™ were detected by separate HyD™ detectors.
Colocalization experiments were performed in NIH3T3 cells (Flp-In-3T3, Thermo Fisher Scientific). For fixed-cell experiments, cells were plated at 3×10^4 cells/mL on sterile glass coverslides placed in 12-well culture plates. […] One day after transfection, cells were treated with drug or DMSO and fixed. Drug additions were performed by exchanging the media for DMEM+10% v/v FBS plus drug. To fix, cells were washed once with DPBS (Thermo Fisher Scientific), then incubated with 4% v/v paraformaldehyde in DPBS for 15 minutes. After washing twice with DPBS, coverslides with cells were removed from the plate and mounted on glass slides using Fluoromount-G (SouthernBiotech).
Colocalization of NS3a and DNCR1 at the plasma membrane, nucleus, mitochondria and Golgi was performed with two sets of constructs, with either NS3a or DNCR1 as the immobilized component. mCherry™-NS3a was used with Tom20-DNCR1-EGFP, DNCR1-EGFP-Giantin, and 3×NLS-DNCR1-EGFP. […] Colocalization was analyzed after 1 h of 10 μM drug or equal volume DMSO treatment.
All images were analyzed using ImageJ. […] EGFP fluorescence was quantified in the ROI over the timecourse. […] The cytoplasmic fluorescence was normalized to the value in the first and last frame for each cell. […]

B1: DNCR1: danoprevir/NS3a complex reader 1, intermediate-affinity variant, SEQ ID NO: 9 (protein)
chain: SSDEEEARELIERAKEAAERAQEAAERTGDPRVRELARELKRLAQEAAEEVKRDPSSSDVNEALKLIVEAIEAAVDALEAAERTGDPEVRELARELVRLAVEAAEEVQRNPSSSDVNEALLSIVIAIEAAVHALEAAERTGDPEVRELARELVRLAVEAAEEVQRNPSSREVEHALMKIVLAIYEAEESLREAEESGDPEKREKARERVREAVERAEEVQRDPSGWLNH
Kd (NS3a/grazoprevir complex; apparent, yeast-displayed design, NS3a/grazoprevir complex, read-out: KD (nM) ± standard deviation): 2900 ± 100 nM
Fold drug specificity (NS3a/grazoprevir complex; danoprevir/NS3a over grazoprevir/NS3a): 15 fold
Kd (NS3a/asunaprevir complex; apparent, yeast-displayed design, NS3a/asunaprevir complex, read-out: KD (nM) ± standard deviation): 6300 ± 2600 nM
Fold drug specificity (NS3a/asunaprevir complex; danoprevir/NS3a over asunaprevir/NS3a): 33 fold
Kd (NS3a/danoprevir complex; apparent, yeast-displayed design, NS3a/danoprevir complex, read-out: KD (nM) ± standard deviation): 190 ± 10 nM
binding to NS3a/danoprevir complex (NS3a/danoprevir complex; yeast surface display): high nanomolar affinity
Colocalization of DNCR1-EGFP and NS3a-mCherry (NS3a in NIH3T3 cells): functional binding specificity for the danoprevir/NS3a complex
